Source: the RNAGym collection of RNA variant scans (doi:10.7554/elife.90254)

B1: OR4K15 (parent)
chain: GUUAACGGUCAUAGGCCAUGGAAACUAGGAGCACCAUUUCGCUGCCAGUGAAGAAAUGAACAAAGAAAAUCUGGGCCAGGCAGGCAUCAAAAGAAAUAGUCUUGCGCUCAACCAGAAAGUCUGUAAUCAUUUUAAGGGUA

Variants of: B1
Test: self-cleavage, relative activity (ratio to wild type); higher = more cleavage; in vitro, sequencing; the parent is a self-cleaving ribozyme
Work on U3A A66G yielded a self-cleavage of 1.1.
U19C C109U gave a self-cleavage of 0.63.
For A118G U130C, the self-cleavage was 0.73.
A94G G106A gave a self-cleavage of 0.
Work on A82G C85U yielded a self-cleavage of 0.32.
U9G A59G gave a self-cleavage of 1.
In the case of A59G U108C, the self-cleavage is reported as 0.02.
A118G U131C gave a self-cleavage of 0.63.
Work on U3A U139A yielded a self-cleavage of 1.89.
For U9C A59U, the self-cleavage was 1.48.
In the case of U97C U122C, the self-cleavage is reported as 1.21.
With A11G C32G the self-cleavage was 0.61.
For A117G C128U, the self-cleavage was 2.12.
Work on A30G A114G yielded a self-cleavage of 0.23.
For A52G A135U, the self-cleavage was 1.37.
In the case of U39C C128U, the self-cleavage is reported as 1.42.
Variant A22U G99A has a self-cleavage of 1.39.
Variant U9C U122A has a self-cleavage of 1.06.
In the case of U2G A63C, the self-cleavage is reported as 0.7.
In the case of A89U A125G, the self-cleavage is reported as 0.77.
Variant U26C A52G has a self-cleavage of 1.82.
For G8A U122C, the self-cleavage was 0.6.
With G58U G106A the self-cleavage was 0.01.
With U39C A47U the self-cleavage was 0.79.
With C34A A51G the self-cleavage was 1.27.
In the case of A95U C105U, the self-cleavage is reported as 0.45.
Variant C17U U124A has a self-cleavage of 1.1.
With A92G U122A the self-cleavage was 1.96.
For U9C U132A, the self-cleavage was 1.85.
A54U A86G gave a self-cleavage of 0.36.
Work on A5C U102C yielded a self-cleavage of 0.96.
U2A A118G gave a self-cleavage of 0.95.
For U87G A95G, the self-cleavage was 1.11.
With C40U A62G the self-cleavage was 1.2.
Variant A27G A111U has a self-cleavage of 0.04.
G99A U132A gave a self-cleavage of 0.23.
In the case of U37A A82G, the self-cleavage is reported as 0.61.
For C45A A51G, the self-cleavage was 1.35.
Work on U38A U108A yielded a self-cleavage of 0.04.
A33G A64G showed a self-cleavage of 0.5.
Variant A56G U70A has a self-cleavage of 1.49.
In the case of A59U A95G, the self-cleavage is reported as 1.85.
With U87C C112G the self-cleavage was 0.02.
G83A A92G gave a self-cleavage of 1.87.
U72G A118G gave a self-cleavage of 0.22.
In the case of A117G A140G, the self-cleavage is reported as 1.68.
Work on A98G A117G yielded a self-cleavage of 0.81.
With A52G U103C the self-cleavage was 0.45.
For A30C A64U, the self-cleavage was 0.92.
U19G G28C showed a self-cleavage of 0.48.
Variant U19G C40A has a self-cleavage of 1.04.
A56U U103A showed a self-cleavage of 0.25.
G7A C112U gave a self-cleavage of 0.02.
For A54G U57G, the self-cleavage was 0.2.
A55G A66U gave a self-cleavage of 0.64.
In the case of U124C A134G, the self-cleavage is reported as 1.11.
U100C A114G gave a self-cleavage of 1.34.
Work on U131A U133A yielded a self-cleavage of 0.95.
U49A C121A gave a self-cleavage of 0.95.
U9C A98G showed a self-cleavage of 0.22.
A55G A140U showed a self-cleavage of 0.81.
Variant A59U A67G has a self-cleavage of 1.25.
For A62U A95G, the self-cleavage was 2.47.
In the case of A68G A117G, the self-cleavage is reported as 2.
For A59U U124A, the self-cleavage was 0.51.
For U122A U131C, the self-cleavage was 0.34.
In the case of U43A A54G, the self-cleavage is reported as 0.83.
For A54U A89G, the self-cleavage was 1.42.
With A4U U132C the self-cleavage was 2.14.
Variant G74A U130C has a self-cleavage of 0.11.
C35U U38C gave a self-cleavage of 0.61.
Work on G44A A111G yielded a self-cleavage of 0.01.
For U57G U120C, the self-cleavage was 1.11.
Variant U39C U103C has a self-cleavage of 0.93.
Work on G44A U127C yielded a self-cleavage of 1.58.
For G58U A67G, the self-cleavage was 0.88.
For U97A A140G, the self-cleavage was 1.98.
A33U C128U showed a self-cleavage of 1.3.
Variant A63G A92U has a self-cleavage of 1.35.
Variant A64U A92C has a self-cleavage of 1.53.
For A18G A90U, the self-cleavage was 2.38.
A23U A59G gave a self-cleavage of 2.4.
A27U U97C gave a self-cleavage of 1.75.
Variant A51G A118U has a self-cleavage of 0.39.
A60U U102C gave a self-cleavage of 2.8.
With A82U U124C the self-cleavage was 0.18.
Variant A68G A78G has a self-cleavage of 0.3.
Work on U39A A64U yielded a self-cleavage of 1.87.
C10A U37G showed a self-cleavage of 0.71.
In the case of C46A A78G, the self-cleavage is reported as 0.17.
For A52G A69G, the self-cleavage was 0.65.
C32G A95G showed a self-cleavage of 1.87.
Work on A64G U131A yielded a self-cleavage of 0.6.
For C16A G83U, the self-cleavage was 0.41.
With U72A A78G the self-cleavage was 0.05.
Variant C40U A89G has a self-cleavage of 1.33.
For A56U A69U, the self-cleavage was 0.67.
For A11G A82G, the self-cleavage was 0.55.
With U122G G137A the self-cleavage was 2.2.
With A110U U132A the self-cleavage was 1.8.
Variant G7U A13G has a self-cleavage of 1.41.
For A51U A68C, the self-cleavage was 1.91.
Work on U3G A140G yielded a self-cleavage of 1.39.
In the case of U108A A114G, the self-cleavage is reported as 0.02.
A126G A129U showed a self-cleavage of 0.83.
In the case of U100C U120C, the self-cleavage is reported as 2.65.
Variant C10U A86G has a self-cleavage of 0.7.
Variant A33U has a self-cleavage of 1.4.
Work on A4G A116U yielded a self-cleavage of 0.26.
A54G U87A showed a self-cleavage of 1.79.
For A78G A114U, the self-cleavage was 0.01.
For G84C U122C, the self-cleavage was 0.23.
Variant U124C has a self-cleavage of 0.62.
Work on C35A A94G yielded a self-cleavage of 2.34.
Variant U49C U124A has a self-cleavage of 0.48.
In the case of U70A U102A, the self-cleavage is reported as 0.25.
In the case of A11G A22U, the self-cleavage is reported as 1.75.
For A5G A33C, the self-cleavage was 1.28.
A27G U132C showed a self-cleavage of 0.79.
With A30G U37C the self-cleavage was 0.98.
Variant A5U A56G has a self-cleavage of 1.76.
U87C C128U gave a self-cleavage of 0.76.
For U19A A24G, the self-cleavage was 0.29.
Variant U2C U26G has a self-cleavage of 0.72.
For A18C U39A, the self-cleavage was 1.48.
U87A A89G showed a self-cleavage of 0.91.
A59U A110G showed a self-cleavage of 0.08.
Variant U37A U139C has a self-cleavage of 1.19.
A5G G29A showed a self-cleavage of 1.06.
A92U U102C showed a self-cleavage of 2.01.
U38C A117G gave a self-cleavage of 1.18.
In the case of C76U U108C, the self-cleavage is reported as 0.
A18G G41A showed a self-cleavage of 1.53.
A23C A59G gave a self-cleavage of 0.63.
A60G U131C showed a self-cleavage of 0.15.
Variant U9A U108C has a self-cleavage of 0.03.
A66U A114U showed a self-cleavage of 0.04.
For U2A A51U, the self-cleavage was 0.86.
Variant G14A A23G has a self-cleavage of 0.8.
For C16U A54G, the self-cleavage was 0.87.
With U37A A67U the self-cleavage was 0.67.
Work on C34U A62G yielded a self-cleavage of 1.25.
For U37A A69U, the self-cleavage was 1.92.
A18C A111G gave a self-cleavage of 0.02.
In the case of A30G C121A, the self-cleavage is reported as 2.31.
With U72A A89G the self-cleavage was 0.36.
With U70G U97C the self-cleavage was 1.01.
For A18U U19A, the self-cleavage was 1.53.
U43A U70A gave a self-cleavage of 0.37.
In the case of A117G U133C, the self-cleavage is reported as 1.85.
U57A U139C gave a self-cleavage of 0.25.
In the case of U12C A134G, the self-cleavage is reported as 1.7.
With U12C U122G the self-cleavage was 2.09.
Work on A96U A126G yielded a self-cleavage of 1.58.
With U43A A52G the self-cleavage was 1.6.
Variant A23G has a self-cleavage of 0.97.
Variant A47C A60G has a self-cleavage of 1.63.
With U9C A51U the self-cleavage was 2.13.
With A89C C107U the self-cleavage was 0.04.
A63G A64G gave a self-cleavage of 1.37.
In the case of A30U U103A, the self-cleavage is reported as 0.53.
Variant A23G C105G has a self-cleavage of 0.07.
A89G A140U gave a self-cleavage of 1.23.
For A91G A116U, the self-cleavage was 0.12.
For A18U A117G, the self-cleavage was 1.72.
For A23G U103C, the self-cleavage was 0.77.
A110G C121G gave a self-cleavage of 0.2.
